As usually defined, the Kd is the free concentration of one partner at which half of the binding sites on the other are occupied at equilibrium, for simple one-to-one binding.

Data set [1] deals with T1, neuron specific enolase (NSE) (UniProt P09104 2-434). Kind of data set: SPR; NSE 125 nM to 2 uM; SPR (Biacore X100, SA chip); 1x PBS pH 7.5, 0.1% Tween 20, 5 mM MgCl2 (NSE) or 2 mM MgCl2 (ProGRP31-98); temperature not stated. The following applies: protein: recombinant; chain copies: 2; label: 5' biotin-TEG.
The target in data set [2] is T1, neuron specific enolase (NSE). Kind of data set: SPR; 5 mM MgCl2; kon 1.21e4 (printed Ms-1), koff 1.004e-3 s-1; SPR (Biacore X100, SA chip); 1x PBS pH 7.5, 0.1% Tween 20, 5 mM MgCl2 (NSE) or 2 mM MgCl2 (ProGRP31-98); temperature not stated. The conditions noted are these: protein: recombinant; chain copies: 2; label: 5' biotin-TEG.
Data set [3] addresses T2, progastrin-releasing peptide (31-98) (ProGRP31-98) (UniProt P07492 54-121).
T2 sequence: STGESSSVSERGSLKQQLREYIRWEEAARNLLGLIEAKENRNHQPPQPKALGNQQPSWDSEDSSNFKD
Kind of data set: SPR; 2 mM MgCl2; kon 8.64e3 (printed Ms-1), koff 1.321e-3 s-1; SPR (Biacore X100, SA chip); 1x PBS pH 7.5, 0.1% Tween 20, 5 mM MgCl2 (NSE) or 2 mM MgCl2 (ProGRP31-98); temperature not stated. The conditions noted are these: protein: commercial; label: 5' biotin-TEG. (In general: Surface plasmon resonance follows binding to a sensor surface in real time, without labels.)

T1 sequence (P09104 2-434): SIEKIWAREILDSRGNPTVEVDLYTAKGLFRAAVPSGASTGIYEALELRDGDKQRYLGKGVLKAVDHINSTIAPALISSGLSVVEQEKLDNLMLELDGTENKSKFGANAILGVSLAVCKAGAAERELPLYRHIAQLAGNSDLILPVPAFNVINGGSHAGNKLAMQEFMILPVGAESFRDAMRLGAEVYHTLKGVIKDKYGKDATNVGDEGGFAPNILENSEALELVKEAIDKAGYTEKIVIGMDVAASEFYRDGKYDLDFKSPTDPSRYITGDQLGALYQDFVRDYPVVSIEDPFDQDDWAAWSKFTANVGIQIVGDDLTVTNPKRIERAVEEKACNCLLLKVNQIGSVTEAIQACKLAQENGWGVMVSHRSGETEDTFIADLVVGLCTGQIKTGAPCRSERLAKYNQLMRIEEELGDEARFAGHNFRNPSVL

As to TCAGGTGCAGTTCTCGACTCGGTCTTGATGTGGGT (ssDNA) [DNA control], in data set [1], the binding result is “no binding”.

In the case of TCACACACGGACCTCTCCTACATTAATTGCGCATTTCGTT (ssDNA) [NSE-Apt5-5BioTEG], the Kd in data set [2] was about 83 nM.

For CATGCGGAGTAGATTCGAGCCCAGATAGTCCCTGGTTATTTCCTTAGG (ssDNA) [ProGRP-48-5BioTEG], in data set [3], the affinity, expressed as Kd, was 153 nM.

(Values after publication PMC9041927, “Aptamer based surface plasma resonance assay for direct detection of neuron specific enolase and progastrin-releasing peptide (31-98)†”.)
